Measured values as given in paper PMC6943187.

Biological target: WT FUS::EGFP (FUS tagged with a C-terminal GFP tag) (UniProt P35637)
Experiment: single-molecule photobleaching step counting

fraction of dimers (two-step photobleaching): 30%
Substance: WT FUS::EGFP (FUS tagged with a C-terminal GFP tag) (from UniProt P35637 1-526)
